What is called stoichiometry N is the number of molecules, sites or subunits per partner or assembly.

Series [1] deals with the molecule itself. Briefly: SEC-SAXS; inline SEC-SAXS co-flow, Superdex 200 5/150, low salt: 150 mM KCl, 20 mM HEPES pH 7.4, 5% glycerol, 5 mM MgCl2, 1 mM DTT, 25 °C; injected at 4.91 mg/ml.
Series [2] deals with the molecule itself. Briefly: SEC-SAXS; inline SEC-SAXS co-flow, Superdex 200 5/150, 500 mM KNO3, 20 mM HEPES pH 7.4, 5% glycerol, 1 mM DTT, 25 °C; injected at 4.2 mg/ml (full length) or 5 mg/ml (1–598).
Series [3] addresses T1, full-length SFPQ (splicing factor proline- and glutamine-rich) (Homo sapiens), P23246.
T1 chain: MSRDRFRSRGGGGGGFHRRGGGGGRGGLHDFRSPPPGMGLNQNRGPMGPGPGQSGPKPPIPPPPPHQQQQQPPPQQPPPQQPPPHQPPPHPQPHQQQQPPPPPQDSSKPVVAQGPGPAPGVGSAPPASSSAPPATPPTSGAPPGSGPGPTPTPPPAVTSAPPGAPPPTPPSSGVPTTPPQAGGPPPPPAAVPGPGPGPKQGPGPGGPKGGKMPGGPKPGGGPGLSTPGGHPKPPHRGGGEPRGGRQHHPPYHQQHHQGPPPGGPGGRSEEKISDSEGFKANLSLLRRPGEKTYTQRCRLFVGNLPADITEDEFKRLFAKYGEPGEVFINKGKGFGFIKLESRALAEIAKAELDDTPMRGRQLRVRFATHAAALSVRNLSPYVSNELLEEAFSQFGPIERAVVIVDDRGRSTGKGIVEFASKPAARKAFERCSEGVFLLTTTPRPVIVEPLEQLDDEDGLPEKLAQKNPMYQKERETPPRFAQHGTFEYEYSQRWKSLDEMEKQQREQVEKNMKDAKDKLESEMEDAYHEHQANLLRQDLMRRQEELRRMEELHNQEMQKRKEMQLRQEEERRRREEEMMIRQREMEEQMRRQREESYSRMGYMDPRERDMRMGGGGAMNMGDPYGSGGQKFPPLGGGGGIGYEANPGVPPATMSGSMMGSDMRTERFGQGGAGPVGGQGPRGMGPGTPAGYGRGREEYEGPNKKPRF
Put plainly: SANS; static cell, 1:20 hSFPQ:dSFPQ at 0.63 mg/ml, no match-out, 150 mM KCl, 1.5% glycerol, 20 mM HEPES, 1 mM DTT pH 7.4 in H2O. The following applies: remark: other sources report otherwise.

Series [4] deals with T1, full-length SFPQ (splicing factor …). Put plainly: SEC-SAXS; inline SEC-SAXS co-flow, Superdex 200 5/150, 500 mM KNO3, 20 mM HEPES pH 7.4, 5% glycerol, 1 mM DTT, 25 °C; injected at 4.2 mg/ml (full length) or 5 mg/ml (1–598). The following applies: remark: other sources report otherwise. For orientation: In gel filtration, larger molecules generally elute earlier.

B1: SFPQ residues 1–598 (domain or fragment, Homo sapiens, UniProt P23246 1-598, looked up)
chain: MSRDRFRSRGGGGGGFHRRGGGGGRGGLHDFRSPPPGMGLNQNRGPMGPGPGQSGPKPPIPPPPPHQQQQQPPPQQPPPQQPPPHQPPPHPQPHQQQQPPPPPQDSSKPVVAQGPGPAPGVGSAPPASSSAPPATPPTSGAPPGSGPGPTPTPPPAVTSAPPGAPPPTPPSSGVPTTPPQAGGPPPPPAAVPGPGPGPKQGPGPGGPKGGKMPGGPKPGGGPGLSTPGGHPKPPHRGGGEPRGGRQHHPPYHQQHHQGPPPGGPGGRSEEKISDSEGFKANLSLLRRPGEKTYTQRCRLFVGNLPADITEDEFKRLFAKYGEPGEVFINKGKGFGFIKLESRALAEIAKAELDDTPMRGRQLRVRFATHAAALSVRNLSPYVSNELLEEAFSQFGPIERAVVIVDDRGRSTGKGIVEFASKPAARKAFERCSEGVFLLTTTPRPVIVEPLEQLDDEDGLPEKLAQKNPMYQKERETPPRFAQHGTFEYEYSQRWKSLDEMEKQQREQVEKNMKDAKDKLESEMEDAYHEHQANLLRQDLMRRQEELRRMEELHNQEMQKRKEMQLRQEEERRRREEEMMIRQREMEEQMRRQREESYS
notes: The GFP tag was removed with TEV protease; that the His tag left with it is surmised from the second nickel column
B1: the “stoichiometry N” value in series [1] and in series [2] was 2 in each case.

B2: full-length SFPQ (splicing factor proline- and glutamine-rich), P23246 1-707 (natural protein)
chain: T1 chain
For B2, the stoichiometry N in series [3] and in series [4] was 2 throughout.

(Values after publication PMC12216677, “Structural dynamics of IDR interactions in human SFPQ and implications for liquid–liquid phase separation” (Acta Crystallographica Section D: Structural Biology, 2025).)
